# Measurements taken from the DeepSol protein solubility set.
# Experiment: soluble on expression in E. coli; label from the status in PepcDB or PDB records
row,Sequence,soluble on expression in E. coli
1,MLRVGPLTIGTLDDWAPSTGSTVSWRPSAVAHTKASQAPISDVPVSYMQAQHIRGYCEQKAKGLDYSRLMVVSCQQPGQCDIRAANYVINAHLRRHDTYRSWFQYNGNGQIIRRTIQDPADIEFVPVHHGELTLPQIREIVQNTPDPLQWGCFRFGIVQGCDHFTFFASVDHVHVDAMIVGVTLMEFHLMYAALVGGHAPLELPPAGSYDDFCRRQHTFSSTLTVESPQVRAWTKFAEGTNGSFPDFPLPLGDPSKPSDADIVTVMMLDEEQTAQFESVCTAAGARFIGGVLACCGLAEHELTGTTTYYGLTPRDTRRTPADAMTQGWFTGLIPITVPIAGSAFGDAARAAQTSFDSGVKLAEVPYDRVVELSSTLTMPRPNFPVVNFLDAGAAPLSVLLTAELTGTNIGVYSDGRYSYQLSIYVIRVEQGTAVAVMFPDNPIARESVARYLATLKSVFQRVAESGQQQNVA,not soluble
2,MKIYCCLNTVGFFMDGCGVIPPDSKEITAEHWQSLLKSQAEGGVIDFSVFPPSIKEVIRTHDDEVADANFQKQMLISDATDFINSRQWQGKAALGRLKEDELKQYNLWLDYLEALELVDTSSAPDIEWPTPPAVQARLEHHHHHH,soluble
3,MIKIGVITMALLSFLNAGWFSLLFGSNPDPISIPIDLSQAGSVVEREVKIEETWAYDLFLEFAVLDRKEDGGLDGKKVRKFLGFNSYNPYDGKKLGFGDYEQAKRKLGDLIDETYDCDGTIAPIKLTIHQINKDNTKKLIVDNLYMTKGYSSGAYERDIAIISLDKGKYIFRIENIEAFQEMNARKVNFIIRIHKRDK,not soluble
4,MGHHHHHHSHMSHGHSHGGGGCRCAAEREEPPEQRGLAYGLYLRIDLERLQCLNESREGSGRGVFKPWEERTDRSKFVESDADEELLFNIPFTGNVKLKGIIIMGEDDDSHPSEMRLYKNIPQMSFDDTEREPDQTFSLNRDLTGELEYATKISRFSNVYHLSIHISKNFGADTTKVFYIGLRGEWTELRRHEVTICNYEASANPADHRVHQVTPQTHFIS,not soluble
5,MSSGLEDNLQLLGGNVTLLEQEAQKLANETKAGVYVVTTDSSTPASQMAKTYLADKVGAKNNGVVLVINMNLRKVYIWATGNLKYYLPSSRIEKTLDIVQPELTDNNYYQAVSGFFDQVSKYYQAGLEHHHHHH,not soluble
6,MHHHHHHSSGVDLGTENLYFQSNAMLLPTDLSENSFKVLEYLGDFKKVGVEEIGVLFVINLTKLSTVSGGIDIDHYIDEMSEKAEEVLPEVAQKIEAAGIKAEVIKPFPAGDPVVEIIKASENYSFIAMGSRGASKFKKILLGSVSEGVLHDSKVPVYIFKHDMVVNSLFDRVLVAYDFSKWADRALEYAKFVVKKTGGELHIIHVSEDGDKTADLRVMEEVIGAEGIEVHVHIESGTPHKAILAKREEINATTIFMGSRGAGSVMTMILGSTSESVIRRSPVPVFVCKRGDDE,soluble
7,MGSDKIHHHHHHMAVVFPSKEWMEELYKKVNADEEYRRVAANWEGDYLCVVELDEEALRDFQNPKVLRGFLGMLDSIPKEKRERFRGTPSEKLLEALGLSLDSDLSDANVEEIAKKIAENPDKILEAAKGASLNIWMDFWHGDFRNIEVAAPGEHEDAKFKLIGPYAVFKQLVMGKADAITLVVSGKLKLQGDMGYMMRNMATVKKFTDLMASIPIET,not soluble
8,ETLPLMMFTANGGGYLTYANKWLKDYFGMLEIQSGKTEWTSLVNSSDTKQVRDEWEKAQTNQTHFRAQAKLKSKTAESALWHLISLVPVKNDLNQITSWTGFFVDI,not soluble
9,PQFEKIEGRMIRILYLLVKPESMSHEQFRKECVVHFQMSAGMPGLHKYEVRLVAGNPTDTHVPYLDVGRIDAIGECWFASEEQYQVYMESDIRKAWFEHGKYFIGQLKPFVTEELV,soluble
10,MGSDKIHHHHHHMILFEWGTYNALSTLKQAALLGTRITEIPPAVLSRRLPSGYYESYKKLGGEYFTSILAHGPYYSLSSEKGLKGHLSAIEKATLCGAEIYNYHLGKRVGDDLNYHLEVLKKFSEVNNEMIYSPEPATNIGEFGTLDELEELIKAAKEEDIKIIPSLQLENIFLNELGVYEKDDLDEAAEKADVDWWLKIFRRMDKISDYIMHFRFSQVIGLKYGKRFYKKRVPLGKGYPPVEPLTEALATYLVDNATRGGFKKVLFVYTGLPEVKYRDLIDLYAMIMKKSIDKLMSRESQVEYGDFYKVMSSEEEE,not soluble
11,MTDKLPFALYSRCVKAGKRFYYIDAKRDSKGNDYLVITESNSAEEGSAMTRHKVFLYREDFAKFTEAFLDVLKSFEKRSGVSGCEQAIGLSELEQSLSDMTTGVEGLAESSDSILEEDEPLKIDFDF,not soluble
12,MGSDKIHHHHHHMSCIDCAVKNCNKMDKTYPDFCLTTHMDEEVLNEAMECYNEDENRKVTIAAAEVEYENYCKHTRVEEIMDFAKKINAKKIGIATCVGLLKESRILADILRRHGFEVYGVGCKAGTQKKTSVGIPECCEGVGVNMCNPILQAKLLNKAKTDLNVVVGLCVGHDSLFYKYSEALTTTAVTKDRVLGHNPVAALYTADSYYSKLKKSEEE,not soluble
13,MSLKPRACVVVYPGSNCDRDAYHALEINGFEPSYVGLDDKLDDYELIILPGGFSYGDYLRPGAVAAREKIAFEIAKAAERGKLIMGICNGFQILIEMGLLKGALLQNSSGKFICKWVDLIVENNDTPFTNAFEKGEKIRIPIAHGFGRYVKIDDVNVVLRYVKDVNGSDERIAGVLNESGNVFGLMPHPERAVEELIGGEDGKKVFQSILNYLKREGGSHHHHHH,soluble
14,MPEEMDKPLISLHLVDSDSSLAKVPDEAPKVGILGSGDFARSLATRLVGSGFKVVVGSRNPKRTARLFPSAAQVTFQEEAVSSPEVIFVAVFREHYSSLCSLSDQLAGKILVDVSNPTEQEHLQHRESNAEYLASLFPTCTVVKAFNVISAWTLQAGPRDGNRQVPICGDQPEAKRAVSEMALAMGFMPVDMGSLASAWEVEAMPLRLLPAWKVP,soluble
15,QTVLKPKVYVRARPKDMNGQGALLSGSVVDIGSGAIENRGGLIAGREALILNAQNIKNLQGDLQGKNIFAAAGSDITNTGSIGAEN,not soluble
16,MAFEATKREWCELYTFFRLLTEGKVTLGTAKAKKGEIDWPIAMIQREEHDGTRCYYIEKEMVRIKGENSEKFVPREDFGIVADLILQAVKSSSEDEVTSPDGVEEFLDEVAIFDLEAKTEDRTDFYIAFWHPEAPLSGFSVRSRLGAMNPLLDGGRAANLKLEQSGVKFATPTVNKINALPEAPNEVAERMLLIERLGGVLKYSDVADRVFRSNLLMIDLHFPRVLTEMVRIMHLDDITRISELTEVIKQMNPLKIKDELVNKHGFYEFKVKQFLMALALGMRPAKIYTGQDSAVEGILLMDGSGEVLCYHKSEKPVMEDFLFLNTRLEKGSLDKDKYGFLERENGTYYFKLNAKIGLVKR,not soluble
17,MSLSIFEHFQARYEAAKDEELSIQDFLALCKENKSAYANAAERLLLAIGEPEMIDTSKHSRLSRIFSNRVIARYKTFEDFYGMEEAIEQIVAYLKHAAQGLEERKQILYLLGPVGGGKSSLAEKLKALMQQMPIYVLSANGQRSPVNDHPFCLFDVNEDGELLKQEYGIDRRYLRSIMSPWAAKRLHEFGGDITKFKVVKVRPSILDQIAVAKTEPGDENNQDISSLVGKVDIRKLEHFSQDDPDAYSYSGALCRANQGLMEFVEMFKAPIKVLHPLLTATQEGNYNGTEGLSALPFDGMILAHSNESEWQTFRNNKNNEAFLDRVYIVKVPYCLRVSEEVKIYQKLLDHSELSKAPCAPSTLDLLAQFSVLSRLKVPENSSLFSKMRVYDGETLKDTDPKAKSYQEYRDYAGVDEGMSGLSTRFAFKILSRVFNFDHSEVAANPVHLFYVIEQQVEREGHHHHHH,not soluble
18,MKIRVVSSKEEIDTLKLNEEIVHLAFRPSNKDIFKLILKCPEVKAIHIPSSYKRTISSSAQMYLSMQNIALLEGDVWGHRKDINEYSEVSEHVFDRIKELKEEGLSDEDTIEKLVRETRLSPDFVTFIISN,not soluble
19,MGSDKIHHHHHHMWVCGLGVIRFGPAGKPVEFKGDIVKVPEFLRSIGLDALEYEAVRGVRISEAKARRLGEAARENGVILSMHAPYYVNLSSPDDSVVERSIKRLYDSMIASEWMGSYAVVVHPGYYKGLKSREEAVKRVIEALNRLIESLPSWVKTPWIAPETMGKQSQVGSLEETVEICLNTPRCRPCVDWAHLYARAEGKFVTSVDQVVKAIEYIESNLGREAVDPLHTHFSKIEYGKGGERMHHTLREEGYGPDWRIVCRAYKETGINAVVISESPILEKDALLMKSICKGEA,not soluble
